From the RNAGym collection of RNA variant scans (doi:10.1073/pnas.2313332121)

B1: TPR t1 (parent)
chain: GACCAAUCUGCCCUCAGAGCUCGAGAACAUCUUCGGAUGCAGAGGAGGCAGGCUUCGGUGGCGCGAUAGCGCCAACGUCCUCAACCUCCAAUGCAUCCCACCACAUGAUGAUGCCUGAAGAGCCUUGGUUUUUUG

Variants of: B1
Assay: polymerase ribozyme fitness, log enrichment relative to wild type (log ratio); higher = more active; in vitro selection for triplet polymerase activity
Summary of the method: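 To select mutant libraries of each subunit of a heterodimeric triplet polymerase ribozyme, built by PCR and transcribed, each was annealed with a biotinylated primer, partner subunit and triplets, then incubated frozen at −7 °C. Extended constructs were gel-excised, captured on streptavidin beads and amplified by RT-PCR, in one round carried out in triplicate. Illumina sequencing of input and output libraries kept genotypes with ≥10 input reads and ≥1 read per output. Fitness is the base-2 logarithm of genotype enrichment relative to wild-type enrichment, from inverse-variance-weighted replicate averages.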

Variant	polymerase ribozyme fitness (log ratio)
A100U G113A	-1.88
C99U G110U A121G	-5.37
C102A A111C G120C	-3.12
G107A A111U	-5.27
A100C G110U U112A	-5.07
C104A C114G G127C	-6.1
C104U C124U	0.788
C98G G120A	-4.76
C98U U106G U133G	-2.9
C102G U112A G127U	-4.33
A103G C114U	-3
C104U U133C	0.657
G107A A119G	-4.92
U106A U125A	-0.469
C99G U112C U133A	-6.59
C99G G110C	-7.23
C104A C115A	-0.858
A100U G120A G127C U131A	-2.13
C102U G122U	-1.26
C101U U129A	-1.62
C101G G135C	-1.41
C102A G127A	-3.45
U106A G120C U130G	0.744
U106C U131C U132A	-1.1

Variant	polymerase ribozyme fitness (log ratio)
C102U C104A U130C	-0.457
C101U C114G	-3.89
C104A C114U G127A U131A	-6.47
C102U G110U	-4.26
U109A G110A	-4.3
U109C C123U	-4.63
C104U C123A	0.201
U106G C115U	-4.44
C104A C123U	-0.0302
C104U G120A	0.815
A105U G113U	-5.9
C102U C114G C124G	-2.64
C101G U112C	-0.331
C99U U131G	-3.59
C99U U131C	-2.72
U109A C114U A118C	-5.26
A100C U112G U116A	-4.36
C99U C124A	-1.1
A100U G110U	-2.67
C99A C124U	-4.66
C99A A121G	-4.75
A103G G110A	-5.82
A103G G110U	-3.83
C102A C124U	0.448

Variant	polymerase ribozyme fitness (log ratio)
A100C U130G	-0.881
C102U G120U	-0.992
C102A G128A	-4.69
G107C G120C U130A	-4.61
U106G U112G	-1.25
C102U G113A U129A	-3.17
A103C U133G	-4.45
C99U A118G	-2.48
C102U U130C	-1.87
C98U C102A	-5.43
U109A A119G	-5.27
U109C A111U	-4.13
G107U A119U A121C	-3.29
A103G A118G	-4.56
C104A U112G	-1.47
A103G G113A	-4.15
A105G	-1.71
A105U	-1.69
A105C	-2.22
U106A G120A	0.348
G107A C124A	-2.63
C102A U109G	-2.56
C101U C115U C124U	-0.886
C99U G122U	-3.2

Variant	polymerase ribozyme fitness (log ratio)
U109A U129A	-6.83
G107A U109A A119G	-4.55
U106A G117A	-1.55
C101U U125A	-0.975
C98U C114A	-3.47
C101G G120A G122C	-2.36
C104G U112A	-4.8
U109C A121U	-3.68
U106G U125G	-3.81
G107A G120C	-3.25
C101U G128A	-2.16
U106G G120C	-0.678
C98U C102A A111G A121G G122A	-5.08
C98U C124G	-0.72
A100C G120A G122A	-1.28
A100C G122A	-1.49
C98U C123U	-1.28
U106A U132A	-0.65
C99G A121U	-6.54
C98A G120C	-4.15
C101G C104U	-2.98
U106A C114G	-3.33
A103U G113A U116A A121U	-5.45
U106C A118U G120A	0.234

Variant	polymerase ribozyme fitness (log ratio)
A105G G117A	-4.69
C101G A121U	-0.28
A100C G120U U125C	-0.56
A105C U129A	-4.21
G107C C115A	-6.69
A103U C124G	-3.17
C101A U116A	-3.39
C101G C114U	-3.32
C104A A111U	-3.1
C102U A111U U129C	-6.46
C101U U129G U130C	0.135
A105U G120U	-2.54
U106G C114U	-1.86
C98U U129G	-2.41
A100C	-0.919
A100G	-2.32
A100U	-0.595
C102A A118G	-2.42
C102G U112A C123U G127A	-5.25
C101U A121G	1.57
G107A C114A	-4.24
A105G C124U	-0.654
A105C G113U	-4.85
C102A G117C	-6.66

Variant	polymerase ribozyme fitness (log ratio)
U106C G117A	-3.23
U106C G117C	-3.72
U106C G113C	-2.72
C104U A111U A119G	-1.53
C104A U125G	-2.44
C102G A111C A118C U129C	-5.54
C98A U133G	-6.12
C102U A118G	-1.73
C98U G135C	-0.757
U106C U112A	0.973
U106C U116G	-2.03
A105U U106G G120C	0.766
A103C C104U U116C	-6.48
C99U U132A	-2.96
C98U	-1.2
C98G	-5.78
C99U C102G	-6.32
A103G G117A	-4.42
C102A G113C U126C	-4.92
U106C C123A	0.522
U106C C123G	0.936
U106C C123U	0.901
U109A U112C U130A G135U	-5.01
U109G A119G G135C	-3.19

Variant	polymerase ribozyme fitness (log ratio)
A105U U109C	-5.35
C101A A111G	0.362
C101A U109A A111G G120U C124U	-6.02
A100U U126G G135U	-2.69
C102U C124U	-0.914
C104A G120A	-0.701
C102U G117U	-4.91
A103C C123G	-2.94
C99U C123G	-1.13
U106A U109G A111U	-4.71
C101A G120C	-0.0201
A108C C124G	-4.87
C104U U112C	0.772
A100C C123A	-0.801
C101U A103U G113U	-7.03
C101A G110A C123A	-3.51
C104A G135U	-2.01
C98A C124G G128A U133G	-6.31
U106A C123U	0.563
A100U C115U	-2.94
A100U G128A	-2.05
A103U A119U	-5.64
C104A G110A	-3.18
